Results as given in paper PMC3800053.

B1: Snx29_Left (dsDNA)
DNA 1: TCAGATACTGGGAACACTGTCAC
DNA 2: GTGACAGTGTTCCCAGTATCTGA
B2: Snx29_Right (dsDNA)
DNA 1: TCAGACACTGAGAATACTGTCAC
DNA 2: GTGACAGTATTCTCAGTGTCTGA
B3: Snx25_A (dsDNA)
DNA 1: TCAGAAAAAGGGAAAAGGGTCAC
DNA 2: GTGACCCTTTTCCCTTTTTCTGA

Experiments:
Experiment in all cases: EMSA
[1] = target: Ikaros zinc fingers 1-3 (F1-F3) (UniProt Q03267 117-194)
[2] = target: Ikaros zinc fingers 2-4 (F2-F4) (UniProt Q03267 144-223)
[3] = target: Ikaros zinc fingers 1-4 (F1-F4) (UniProt Q03267 117-223)
Ikaros zinc fingers 1-4 (F1-F4), sequence (Q03267 117-223): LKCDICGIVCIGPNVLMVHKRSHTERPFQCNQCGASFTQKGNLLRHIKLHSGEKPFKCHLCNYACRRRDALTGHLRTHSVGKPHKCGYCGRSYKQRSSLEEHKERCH

Ikaros zinc fingers 2-4 (F2-F4), sequence (Q03267 144-223): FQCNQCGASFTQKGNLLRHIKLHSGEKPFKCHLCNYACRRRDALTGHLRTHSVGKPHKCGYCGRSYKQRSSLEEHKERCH
Ikaros zinc fingers 1-3 (F1-F3), sequence (Q03267 117-194): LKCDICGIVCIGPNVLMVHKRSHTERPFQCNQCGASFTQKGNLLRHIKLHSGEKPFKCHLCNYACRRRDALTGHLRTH

Binder	binding result [1]	binding result [2]	binding result [3]
B1	binds	binds	binds
B2	no binding	no binding	no binding
B3	no binding	binds	binds
